Experimental data as given in paper PMC1450317.

Molecular target: T1, TSLP receptor (TSLPR) (mouse (endogenous in mouse thymocytes)) (UniProt Q8CII9)
T1 sequence: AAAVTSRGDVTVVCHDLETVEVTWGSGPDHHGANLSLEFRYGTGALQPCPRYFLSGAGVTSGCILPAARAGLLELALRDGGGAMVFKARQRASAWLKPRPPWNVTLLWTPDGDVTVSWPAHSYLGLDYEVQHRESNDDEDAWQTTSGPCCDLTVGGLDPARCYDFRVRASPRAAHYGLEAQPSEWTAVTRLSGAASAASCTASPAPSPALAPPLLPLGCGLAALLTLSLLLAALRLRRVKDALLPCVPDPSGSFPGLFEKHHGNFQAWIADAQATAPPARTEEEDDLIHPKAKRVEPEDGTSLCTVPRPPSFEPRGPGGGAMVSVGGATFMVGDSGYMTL

B1: thymic stromal derived lymphopoietin (TSLP), recombinant mouse (ligand)
chain: YNFSNCNFTSITKIYCNIIFHDLTGDLKGAKFEQIEDCESKPACLLKIEYYTLNPIPGCPSLPDKTFARRTREALNDHCPGYPETERNDGTQEMAQEVQNICLNQTSQILRLWYSFMQSPE
- FoxP3 mRNA (real-time PCR, FoxP3/18S) in purified CD4+CD8-CD25+ adult thymocytes cultured with TSLP for two days: 2 fold
- FoxP3 mRNA (real-time PCR, FoxP3/18S) in purified CD4+CD8-CD25- adult thymocytes cultured with TSLP for two days: 10 fold
